For four substances, peptide dose pulsed on the transfectant that triggers CD8+ T cells (ICS) results are on record in US20180298404A1.

Assay [1] has as its target Mamu-E*02:20, single transfectant (rhesus macaque). Put plainly: cell-based or functional assay.
Assay [2] concerns the target Mamu-E*02:04, single transfectant (rhesus macaque). Description: cell-based or functional assay.

In the case of SIVgag259-267 optimal 9mer peptide, the peptide dose pulsed on the transfectant that triggers CD8+ T cells (ICS) in assay [1] and in assay [2] was below 1 nM throughout.

With SIVgag476-484 optimal 9mer peptide, the peptide dose pulsed on the transfectant that triggers CD8+ T cells (ICS) in assay [1] and in assay [2] was below 1 nM in each case.

Turning to SIVgag482-490 optimal 9mer peptide, the peptide dose pulsed on the transfectant that triggers CD8+ T cells (ICS) in assay [1] and in assay [2] was below 1 nM in each case.

In the case of SIVgag276-284 optimal 9mer peptide, the peptide dose pulsed on the transfectant that triggers CD8+ T cells (ICS) in assay [1] and in assay [2] was below 1 nM throughout.
